Results published in article PMC4207998 (The Journal of Biological Chemistry, 2014).

Target: T1, monomeric α-toxin (AT) of Staphylococcus aureus, as crystallised (Staphylococcus aureus subsp. aureus …)
T1 chain: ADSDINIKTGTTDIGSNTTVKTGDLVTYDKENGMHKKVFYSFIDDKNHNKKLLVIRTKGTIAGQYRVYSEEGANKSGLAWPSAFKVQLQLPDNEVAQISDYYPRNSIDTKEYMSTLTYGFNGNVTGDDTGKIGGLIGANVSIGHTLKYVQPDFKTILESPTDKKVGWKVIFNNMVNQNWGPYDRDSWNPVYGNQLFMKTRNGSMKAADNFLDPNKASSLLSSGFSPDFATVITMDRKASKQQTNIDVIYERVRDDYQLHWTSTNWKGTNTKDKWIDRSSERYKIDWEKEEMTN
Experiment: crystal structure
Details: both partners purified

B1: MEDI4893 Fab (Fab, V domains shown)
VH: EVQLVESGGGLVQPGGSLRLSCAASGFTFSSHDMHWVRQATGKGLEWVSGIGTAGDTYYPDSVKGRFTISRENAKNSLYLQMNSLRAGDTAVYYCARDRYSPTGHYYGMDVWGQGTTVTVSS
VL: DIQMTQSPSTLSASVGDRVTITCRASQSISSWLAWYQQKPGKAPKLLIYKASSLESGVPSRFSGSGSGTEFTLTISSLQPDDFATYYCKQYADYWTFGQGTKVEIK
Does B1 bind?
Result: binds
